# Measured values from the nanobody polyreactivity screen of Harvey et al. (2022).
# Assay: yeast display, Sf9 membrane polyspecificity reagent, FACS + sequencing; frameworks hold sequencing errors
# Method in brief: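 Galactose induction of a Saccharomyces cerevisiae BJ5465 synthetic nanobody display library ran 36–48 hours. The cells were then stained for 1 hour at 4 °C with 10% biotinylated, detergent-solubilized Sf9 membrane reagent, pulled down on streptavidin microbeads and FACS-sorted into low and high (top ~1%) gates on expression and reagent-binding fluorescence. Labels for polyreactivity follow the gate of origin.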
row,Sequence,polyreactivity (PSR sort gate)
1,QVQLVESGGGLVQAGGSLRLSCAASGSTSKYYAMGWYRQAPGKERELVAAITWSDVSTYYADSVKGRFTISRDNAKNTVYLQMNSLKPEDTAVYYCNAGYDYWGQGTQVTVSS,low polyreactivity
2,QVQLVESGGGLVQAGGSLRLSCAASGSTSLKNAMGWYRQAPGKERELVAAINSVGDTYYADSVKGRFTISRDNAKNTVYLQMNSLKPEDTAVYYCAKRVVRYGKRMGYWGQGTQVTVSS,high polyreactivity
3,QVQLVESGGGLVQAGGSLRLSCAASGSTSLYNMGWYRQAPGKERELVAAIDSGSTNYADSVKGRFTISRDNAKNTVYLQMNSLKPEDTAVYYCAADGTNIGVYDRASYRDDYWGQGTQVTVSS,low polyreactivity
4,QVQLVESGGGLVQAGGSLRLSCAASGSTSNIYGMGWYRQAPGKERELVAGISRRGSSTYYADSVKGRFTISRDNAKNSVYLHMNSLKPEDTAVYYCNTRSGGYKHRYDYWGQGTQVTVSS,high polyreactivity
5,QVQLVESGGGLVQAGGSLRLSCAASGSTSPINAMGWYRQAPGKERELVAVISSSGGLTYYADSVKGRFTISRDNAKNTVYLQMNSLKPEDTAVYYCAKRFSRRQPDYDYGGQGTQVTVSS,high polyreactivity
6,QVQLVESGGGLVQAGGSLRLSCAASGSTSQSNAMGWYRQAPGKERELVAAISWSGTSTYYADSVKGRFTISRDNAKNTVYLQMNSLNPEDSAVYYCAADYIFDYDYWGQGTQVTVSS,low polyreactivity
7,QVQLVESGGGLVQAGGSLRLSCAASGSTSQYNAMGWYRQAPGKERELVAAISWSGTSTYYADSVKGRFTISRDNAKNTVYLQMNSLKPEDTAVYYCAADYIFDYDYWGQGTQVTVSS,low polyreactivity
8,QVQLVESGGGLVQAGGSLRLSCAASGSTSRHNTMGWYRQPPGKERELVAAISGGGTTYYADSVKGRFTISRDNAKNTVYLQMNSLKPEDTAVYYCAAAFWGDYASSYRSGLDYWGQGTQVTVSS,low polyreactivity
9,QVQLVESGGGLVQAGGSLRLSCAASGSTSRIYAMGWYRQAPGKERELVAAITRSGGSTYYADSVKGRFTISRDNAKNTVYLQMNSLKPEDTAVYYCAADYRSHSRYRYDKVDYWGQGTQVTVSS,high polyreactivity
10,QVQLVESGGGLVQAGGSLRLSCAASGSTSRYNVMGWSRQPPGKERELVAAISSRGVSTYYADSVKGRFTISRDNAKNTVYLQMNSLKPEDTAVYYCAALYGGPSHYGYWGQGTQVTVSS,high polyreactivity
11,QVQLVESGGGLVQAGGSLRLSCAASGSTSRYYDMGWYRQAPGKERELVATITISGITNYADSLKGRFTISRDNAKNTVYLQMNSLKPEDTAVYYCATVGPWPGEYDYWGQGTQVTVSS,low polyreactivity
12,QVQLVESGGGLVQAGGSLRLSCAASGSTSSNNAMGWYRQAPGKERELVADISTNGDSTSYADSVKGRFTISRDNAKNTVYLQMNSLKPEDTAVYYCNKDFVYPDDDGLFDYWGQGTQVTVSS,low polyreactivity
13,QVQLVESGGGLVQAGGSLRLSCAASGSTSTLYAMGWYRQAPGKERELVAAISKSGGRTYYADSVKGRFTISRDNAKNTVYLQMNSLKPEDTAVYYCAALAVYPRRFDYWGQGTQVTVSS,high polyreactivity
14,QVQLVESGGGLVQAGGSLRLSCAASGSTSVTNAMGWYRQAPGKEREFVATINYSGTSTYYADSVKGRFTISRDNAKNTVYLLMNSLKPEDTAVYYCNKTFVRGVHGVYLPITSYDYWAQGTQVTVSS,low polyreactivity
15,QVQLVESGGGLVQAGGSLRLSCAASGSTSYDNSMGWNRKAPGKERELVAAITSDGGSTYYADSVKGRFTISRDKAKNTLYLQMNSLKPEDTAVYYCSADVVHQEWVYVYGGRDDYWGQGTQVTVSS,low polyreactivity
16,QVQLVESGGGLVQAGGSLRLSCAASGSTSYNAMGWYRQAPGKERELVAAISDGGGSTYYADSVKGRFTISRDNAKNTVYLQMNSLKPEDTAVYYCAADTITGDGYWGQGTQVTVSA,low polyreactivity
